This test deals with human Asp2 aspartyl protease (Hu-Asp2), recombinant enzyme used in the in vitro cleavage assays (human, UniProt P56817 22-453, limits assumed). The experiment in a line: cell-based or functional assay.

Non-standard residues stand in square brackets, D forms with d. No end group written: not given here. Nle = CCCC[C@H](N)C(=O)O

Sequence of human Asp2 aspartyl protease (Hu-Asp2), recombinant enzyme used in the in vitro cleavage assays (P56817 22-453 Q214H limits assumed): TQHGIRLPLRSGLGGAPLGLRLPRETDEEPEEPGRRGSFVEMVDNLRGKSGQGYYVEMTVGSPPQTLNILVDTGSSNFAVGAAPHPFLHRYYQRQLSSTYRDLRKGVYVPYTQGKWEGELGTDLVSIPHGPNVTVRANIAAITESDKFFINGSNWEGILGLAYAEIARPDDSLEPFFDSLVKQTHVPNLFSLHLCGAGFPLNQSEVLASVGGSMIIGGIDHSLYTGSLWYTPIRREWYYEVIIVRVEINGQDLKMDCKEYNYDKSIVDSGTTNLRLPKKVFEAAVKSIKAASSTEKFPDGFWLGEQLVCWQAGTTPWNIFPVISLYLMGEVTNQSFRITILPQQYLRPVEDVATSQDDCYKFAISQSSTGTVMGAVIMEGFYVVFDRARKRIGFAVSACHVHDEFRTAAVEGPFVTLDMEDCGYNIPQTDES

B1: KTINnle-DVDPS (peptide)
peptide: KTIN[Nle]DVDPS
Consider B1, for which the “activity against peptide #3 (SEQ ID NO:134)” value was around 10 fold lower.

B2: SEVNY-EVEFR (peptide)
peptide: SEVNYEVEFR
Turning to B2, the “activity against SEVSY-EVEFR (SEQ ID NO:141), peptide activity assay” value came to 0.2 ratio.

Values taken from US20030017991A1 (PHARMACIA AND UPJOHN COMPANY A DELAWARE, published 2003).
